In test [1] the target is T1, rHuman Notch-1/Fc Chimera, CF (human, UniProt P46531 19-526).
T1 construct: Bought from R&D Systems; Fc part of the bought chimera not given
Description: ECL multispot (MSD) assay, antigen spotted on the plate, Fab in solution; blank spot of the same well 331.

Test [2] deals with T2, rHuman IGF-1 sR, (IGF-1 sR), CF (human, UniProt P08069 31-932).
T2 construct: Bought from R&D Systems as a soluble receptor; also called insulin-like growth factor-1 soluble receptor
The test is described as above.
Description: (§1) An 150 μl aliquot of 1% Bovine Serum Albumin (BSA) in Tris-buffered Saline Tween (TBST) was added to each well and allowed to incubate for 30 min at 20° C. followed by washing and tap drying to completely remove any residual solution. Subsequently, a 12.5 μl aliquot of 1% BSA TBST was added to each well followed by the addition of a 12.5 μl aliquot of a purified Fab. The plate was sealed and incubated for 1 hour at 20° C. with shaking
(§2) TAG-detection antibody at 25 μl was added to each well and allowed to incubate for 1 hour at 20° C. with shaking. Finally, 15 μl of Read Buffer P with Surfactant (Cat # R92PC-1, Meso Scale Discovery) was added to each well. The electrochemiluminescence was measured using a Sector Imager 2400 (Meso Scale Discovery). Data was analyzed by comparing the ECL signals for an antigen to the blank of each well. A signal to blank ratio of 4 or more was considered a “Hit” Fab.

In test [3] the target is T3, rHuman ErbB2/Fc Chimera, CF (human, UniProt P04626 23-652).
T3 construct: Bought from R&D Systems; also called human epidermal growth factor 2 receptor; Fc part of the bought chimera not given
The test is described as above.

Test [4] addresses T4, rHuman Erythropoietin R/Fc Chimera, CF (human, UniProt P19235 25-250).
T4 construct: Bought from R&D Systems; also called EPO R; EPO R/Fc; Fc part of the bought chimera not given
T4 sequence (looked up): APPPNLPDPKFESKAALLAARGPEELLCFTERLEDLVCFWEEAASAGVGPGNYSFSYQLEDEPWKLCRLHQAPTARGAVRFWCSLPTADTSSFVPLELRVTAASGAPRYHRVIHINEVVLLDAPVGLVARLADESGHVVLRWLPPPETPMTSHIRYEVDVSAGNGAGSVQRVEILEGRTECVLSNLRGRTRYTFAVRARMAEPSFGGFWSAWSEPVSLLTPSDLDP
The description is as above.

The target of test [5] is T5, Recombinant Human DLL4 (human, UniProt Q9NR61 27-524).
T5 construct: Bought from R&D Systems; also called delta-like protein 4; rHuman DLL4
The test is described as above.
Description: as §1, §2

The target of test [6] is T6, rHuman EGF R/Fc Chimera, CF (human, UniProt P00533 25-645).
T6 construct: Bought from R&D Systems; also called epidermal growth factor receptor; Fc part of the bought chimera not given
The description is as above.

Test [7] deals with T1, rHuman Notch-1/Fc Chimera, CF. Description: ECL multispot (MSD) assay, antigen spotted on the plate, Fab in solution; blank spot of the same well 231.
Description: as §1, §2
Test [8] deals with T2, rHuman IGF-1 sR, (IGF-1 sR), CF. The description is as above.
Description: as §1, §2
In test [9] the target is T7, rHuman HGF R/c-MET/Fc Chimera, CF (human, UniProt P08581 25-932).
T7 construct: Bought from R&D Systems; also called HGF R/Fc; hepatocyte growth factor receptor; Fc part of the bought chimera not given
T7 sequence (P08581 25-932, change not shown): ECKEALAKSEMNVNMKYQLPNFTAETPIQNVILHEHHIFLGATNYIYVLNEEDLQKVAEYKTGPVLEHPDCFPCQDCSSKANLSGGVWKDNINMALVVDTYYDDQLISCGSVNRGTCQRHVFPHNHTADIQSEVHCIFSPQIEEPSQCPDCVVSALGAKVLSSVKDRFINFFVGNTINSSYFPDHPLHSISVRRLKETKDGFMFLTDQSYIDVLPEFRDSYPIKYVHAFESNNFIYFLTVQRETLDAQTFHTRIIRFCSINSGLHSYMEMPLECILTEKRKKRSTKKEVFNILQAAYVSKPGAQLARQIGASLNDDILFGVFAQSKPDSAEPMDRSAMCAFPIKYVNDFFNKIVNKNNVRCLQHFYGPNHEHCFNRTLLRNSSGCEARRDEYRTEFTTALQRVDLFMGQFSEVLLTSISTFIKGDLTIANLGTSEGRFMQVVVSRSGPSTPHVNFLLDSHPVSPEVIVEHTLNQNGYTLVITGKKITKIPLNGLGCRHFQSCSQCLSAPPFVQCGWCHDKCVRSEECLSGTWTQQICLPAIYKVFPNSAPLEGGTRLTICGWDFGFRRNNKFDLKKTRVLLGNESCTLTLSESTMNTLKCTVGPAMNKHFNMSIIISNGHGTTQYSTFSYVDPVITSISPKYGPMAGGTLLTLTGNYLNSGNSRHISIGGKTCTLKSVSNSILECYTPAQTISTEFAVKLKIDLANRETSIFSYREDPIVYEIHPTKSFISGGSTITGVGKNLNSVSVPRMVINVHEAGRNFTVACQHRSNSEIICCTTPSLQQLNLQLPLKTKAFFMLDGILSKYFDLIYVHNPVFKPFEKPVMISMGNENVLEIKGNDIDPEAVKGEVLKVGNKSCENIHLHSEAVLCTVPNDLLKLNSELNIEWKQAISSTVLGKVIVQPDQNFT
Described as above.

Test [10] addresses T3, rHuman ErbB2/Fc Chimera, CF. The test is described as above.
Description: as §1, §2
Test [11] addresses T4, rHuman Erythropoietin R/Fc Chimera, CF. The test is described as above.
Description: as §1, §2
The target of test [12] is T5, Recombinant Human DLL4. The test is described as above.
Description: as §1, §2
Test [13] deals with T8, rHuman P-Cadherin/Fc Chimera, CF (human, UniProt P22223 108-654).
T8 construct: Bought from R&D Systems; Fc part of the bought chimera not given
Described as above.

Test [14] has as its target T9, rHuman CD44/Fc Chimera, CF (human, UniProt P16070 21-220).
T9 construct: Bought from R&D Systems; Fc part of the bought chimera not given
Described as above.

The target in test [15] is T6, rHuman EGF R/Fc Chimera, CF. Described as above.
Description: as §1, §2
In test [16] the target is T1, rHuman Notch-1/Fc Chimera, CF. Description: ECL multispot (MSD) assay, antigen spotted on the plate, Fab in solution; blank spot of the same well 407.
Description: as §1, §2
In test [17] the target is T2, rHuman IGF-1 sR, (IGF-1 sR), CF. The description is as above.
Description: as §1, §2
Test [18] addresses T7, rHuman HGF R/c-MET/Fc Chimera, CF. Described as above.
Description: as §1, §2
In test [19] the target is T3, rHuman ErbB2/Fc Chimera, CF. The test is described as above.
Description: as §1, §2
Test [20] addresses T4, rHuman Erythropoietin R/Fc Chimera, CF. Described as above.
Description: as §1, §2
The target in test [21] is T5, Recombinant Human DLL4. The description is as above.
Description: as §1, §2
Test [22] addresses T8, rHuman P-Cadherin/Fc Chimera, CF. The description is as above.
Description: as §1, §2
The target of test [23] is T9, rHuman CD44/Fc Chimera, CF. The test is described as above.
Description: as §1, §2
The target in test [24] is T6, rHuman EGF R/Fc Chimera, CF. Described as above.
Description: as §1, §2
Test [25] addresses T1, rHuman Notch-1/Fc Chimera, CF. Description: ECL multispot (MSD) assay, antigen spotted on the plate, Fab in solution; blank spot of the same well 284.
Description: as §1, §2
Test [26] concerns the target T2, rHuman IGF-1 sR, (IGF-1 sR), CF. Described as above.
Description: as §1, §2
In test [27] the target is T7, rHuman HGF R/c-MET/Fc Chimera, CF. The test is described as above.
Description: as §1, §2
Test [28] addresses T3, rHuman ErbB2/Fc Chimera, CF. Described as above.
Description: as §1, §2
Test [29] addresses T5, Recombinant Human DLL4. Described as above.
Description: as §1, §2
For test [30], the target named is T8, rHuman P-Cadherin/Fc Chimera, CF. The description is as above.
Description: as §1, §2
The target of test [31] is T9, rHuman CD44/Fc Chimera, CF. The test is described as above.
Description: as §1, §2
In test [32] the target is T6, rHuman EGF R/Fc Chimera, CF. The description is as above.
Description: as §1, §2

B1: Fab VH1-46_IGHD6-6*01_IGHJ1*01 S102A/S103P/S104F/H111F (APFF) & L6_IGKJ1*01 S31E (Fab, V domains shown)
VH: QVQLVQSGAEVKKPGASVKVSCKASGYTFTSYYMHWVRQAPGQGLEWMGIINPSGGSTSYAQKFQGRVTMTRDTSTSTVYMELSSLRSEDTAVYYCAREEYAPFSAEYFQFWGQGTLVTVSS
VL: EIVLTQSPATLSLSPGERATLSCRASQSVSEYLAWYQQKPGQAPRLLIYDASNRATGIPARFSGSGSGTDFTLTISSLEPEDFAVYYCQQRSNWPPWTFGQGTKVEIKR
notes: Tested as an E. coli Fab; The heavy chain carries CH1 with His6 and Flag tags from plasmid A, the light chain a kappa CL from plasmid C; also called APFF / S31E; H:APFF & L6_IGKJ1*01 S31E
As to B1, the ECL signal in test [1] came to 460; in test [2], 367; in [3], 313; in test [4] it was 441; with Recombinant Human DLL4 [5], 171000; in test [6] it was 297.

B2: Fab VH1-46_IGHD6-6*01_IGHJ1*01 S102A/S103P/S104F/H111F (APFF) & L6_IGKJ1*01 S31G (Fab, V domains shown)
VH: QVQLVQSGAEVKKPGASVKVSCKASGYTFTSYYMHWVRQAPGQGLEWMGIINPSGGSTSYAQKFQGRVTMTRDTSTSTVYMELSSLRSEDTAVYYCAREEYAPFSAEYFQFWGQGTLVTVSS
VL: EIVLTQSPATLSLSPGERATLSCRASQSVSGYLAWYQQKPGQAPRLLIYDASNRATGIPARFSGSGSGTDFTLTISSLEPEDFAVYYCQQRSNWPPWTFGQGTKVEIKR
notes: Tested as an E. coli Fab; The heavy chain carries CH1 with His6 and Flag tags from plasmid A, the light chain a kappa CL from plasmid C; also called APFF / S31G; H:APFF & L6_IGKJ1*01 S31G
Regarding B2, the ECL signal was determined as 426 in test [7]; 301 in [8]; 378 in [9]; 311 in test [10]; 414 in test [11]; 65500 in the test with Recombinant Human DLL4 [12]. The figures for the ECL signal in test [13], in test [14] and in test [15] were 384, 381 and 391, respectively.

B3: Fab VH1-46_IGHD6-6*01_IGHJ1*01 S102A/S103P/S104F/H111F (APFF) & L6_IGKJ1*01 S31Q (Fab, V domains shown)
VH: QVQLVQSGAEVKKPGASVKVSCKASGYTFTSYYMHWVRQAPGQGLEWMGIINPSGGSTSYAQKFQGRVTMTRDTSTSTVYMELSSLRSEDTAVYYCAREEYAPFSAEYFQFWGQGTLVTVSS
VL: EIVLTQSPATLSLSPGERATLSCRASQSVSQYLAWYQQKPGQAPRLLIYDASNRATGIPARFSGSGSGTDFTLTISSLEPEDFAVYYCQQRSNWPPWTFGQGTKVEIKR
notes: Tested as an E. coli Fab; The heavy chain carries CH1 with His6 and Flag tags from plasmid A, the light chain a kappa CL from plasmid C; also called APFF / S31Q; H:APFF & L6_IGKJ1*01 S31Q
As to B3, the ECL signal in test [16] was 383; in test [17], 415; in test [18], 329; in test [19] it was 392; in test [20] it was 548; in the test with Recombinant Human DLL4 [21] it was 165000. In addition, the values for the ECL signal in test [22], in test [23] and in test [24] were 379, 438 and 390, respectively.

B4: Fab VH1-46_IGHD6-6*01_IGHJ1*01 S102A/S103P/S104F/H111F (APFF) & L6_IGKJ1*01 S31Y (Fab, V domains shown)
VH: QVQLVQSGAEVKKPGASVKVSCKASGYTFTSYYMHWVRQAPGQGLEWMGIINPSGGSTSYAQKFQGRVTMTRDTSTSTVYMELSSLRSEDTAVYYCAREEYAPFSAEYFQFWGQGTLVTVSS
VL: EIVLTQSPATLSLSPGERATLSCRASQSVSYYLAWYQQKPGQAPRLLIYDASNRATGIPARFSGSGSGTDFTLTISSLEPEDFAVYYCQQRSNWPPWTFGQGTKVEIKR
notes: Tested as an E. coli Fab; The heavy chain carries CH1 with His6 and Flag tags from plasmid A, the light chain a kappa CL from plasmid C; also called APFF / S31Y; H:APFF & L6_IGKJ1*01 S31Y
Turning to B4, the ECL signal in test [25] was 351; in test [26], 293; in test [27] it was 197; in [28] it was 236; in the test with Recombinant Human DLL4 [29] it was 188000; in test [30], 361. Further, the ECL signal was determined as 445 in [31] and 320 in test [32].
